This is an account of results in PMC6433120 (Nature, 2018).

For this test, the target named is T1, CC-SAM domain of murine KSR1 (mouse, UniProt Q61097 25-170).
T1 sequence (looked up): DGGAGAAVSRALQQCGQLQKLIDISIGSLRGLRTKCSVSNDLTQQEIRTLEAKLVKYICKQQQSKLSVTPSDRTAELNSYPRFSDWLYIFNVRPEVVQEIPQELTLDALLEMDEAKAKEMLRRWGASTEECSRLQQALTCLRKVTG
In words: NMR titration.

B1: BRS domain of human BRAF (domain or fragment, UniProt P15056 36-114, looked up)
chain: SSAADPAIPEEVWNIKQMIKLTQEHIEALLDKFGGEHNPPSIYLEAYEEYTSKLDALQQREQQLLESLGNGTDFSVSSS
For the molecule B1, the binding result was “binds”.
